Publication PMC11711466, “Reconstitution of human DNA licensing and the structural and functional analysis of key intermediates” (Nature Communications, 2024)

Target: T1, human origin recognition complex hORC1-5 (human, UniProt Q13415 1-861; Q13416 1-577; Q9UBD5 1-711; O43929 1-436; O43913 1-435)
T1 construct: human origin recognition complex subunit 1 (hORC1); human origin recognition complex subunit 2 (hORC2); human origin recognition complex subunit 3 (hORC3); human origin recognition complex subunit 4 (hORC4); human origin recognition complex subunit 5 (hORC5); The Strep tag on hORC1 was kept for the pull-down; also called Strep-hORC1-5; hORC1-5WT; source: S. cerevisiae YC658, galactose-induced, …
Experiment: cryo-EM structure; hOCCM from a low-salt washed pre-RC reaction with ATPγS, eluted from the DNA beads with DNaseI; 6.09 Å
Details: both partners purified

B1: human MCM5 (natural protein, UniProt P33992 1-734, looked up)
chain: MSGFDDPGIFYSDSFGGDAQADEGQARKSQLQRRFKEFLRQYRVGTDRTGFTFKYRDELKRHYNLGEYWIEVEMEDLASFDEDLADYLYKQPAEHLQLLEEAAKEVADEVTRPRPSGEEVLQDIQVMLKSDASPSSIRSLKSDMMSHLVKIPGIIIAASAVRAKATRISIQCRSCRNTLTNIAMRPGLEGYALPRKCNTDQAGRPKCPLDPYFIMPDKCKCVDFQTLKLQELPDAVPHGEMPRHMQLYCDRYLCDKVVPGNRVTIMGIYSIKKFGLTTSRGRDRVGVGIRSSYIRVLGIQVDTDGSGRSFAGAVSPQEEEEFRRLAALPNVYEVISKSIAPSIFGGTDMKKAIACLLFGGSRKRLPDGLTRRGDINLLMLGDPGTAKSQLLKFVEKCSPIGVYTSGKGSSAAGLTASVMRDPSSRNFIMEGGAMVLADGGVVCIDEFDKMREDDRVAIHEAMEQQTISIAKAGITTTLNSRCSVLAAANSVFGRWDETKGEDNIDFMPTILSRFDMIFIVKDEHNEERDVMLAKHVITLHVSALTQTQAVEGEIDLAKLKKFIAYCRVKCGPRLSAEAAEKLKNRYIIMRSGARQHERDSDRRSSIPITVRQLEAIVRIAEALSKMKLQPFATEADVEEALRLFQVSTLDAALSGTLSGVEGFTSQEDQEMLSRIEKQLKRRFAIGSQVSEHSIIKDFTKQKYPEHAIHKVLQLMLRRGEIQHRMQRKVLYRLK
notes: Subunit of m6; also called hMCM5; source: HEK293-F, co-expressed hMCM2-7; in lysate (co-purification) and purified as hMCM2-7 (Ni-NTA, StrepTrapXT)
binding result: binds
